Drawing on paper PMC10641069, “Intra- and inter-molecular regulation by intrinsically-disordered regions governs PUF protein RNA binding” (Nature Communications, 2023), this text covers Kd for one molecule.

The data set has as its target T1, FBF-2 RBD (Caenorhabditis elegans, UniProt Q09312 164-575).
T1 sequence: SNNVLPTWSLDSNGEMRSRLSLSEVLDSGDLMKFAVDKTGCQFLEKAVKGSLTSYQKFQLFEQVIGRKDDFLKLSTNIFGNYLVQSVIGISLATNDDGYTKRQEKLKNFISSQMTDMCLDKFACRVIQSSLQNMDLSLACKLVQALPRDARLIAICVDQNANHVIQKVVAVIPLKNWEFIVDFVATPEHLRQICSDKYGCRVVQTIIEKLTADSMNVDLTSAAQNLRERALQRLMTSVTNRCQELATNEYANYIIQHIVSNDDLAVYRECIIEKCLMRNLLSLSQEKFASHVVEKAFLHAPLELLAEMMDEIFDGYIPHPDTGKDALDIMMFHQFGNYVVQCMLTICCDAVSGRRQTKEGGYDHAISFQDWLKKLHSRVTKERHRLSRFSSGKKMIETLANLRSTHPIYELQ
As to the kind of experiment: EMSA; no LST-1; EMSA: FBF-2 in 20 mM HEPES pH 7.4, 150 mM NaCl, 0.5 mM TCEP mixed 1:1 with 5 nM final RNA in 10 mM HEPES pH 7.4, 0.01% Tween 20, 0.1 mg/ml BSA, 0.1 mg/ml yeast. Conditions: protein: recombinant; tags: none (His6-SUMO removed with TEV protease); label: 3'-Cy5. (In general: A gel shift assay detects complexes by their altered migration in electrophoresis.)

B1: gld-1 FBEa RNA (EMSA) (ssRNA)
RNA: AUCAUGUGCCAUAC
By Kd is commonly meant a measure of binding affinity in units of concentration. Regarding B1, the dissociation constant Kd was found to be 0.07 ± 0.023 µM.
